Laboratory results taken from EP1234033B1.

Target: FGF receptor-3c on human osteosarcoma cell line (ATCC, CRL 1543) (human) (UniProt P22607)
Test: cell-based or functional assay

UniProt P22607, sequence (P22607 23-806): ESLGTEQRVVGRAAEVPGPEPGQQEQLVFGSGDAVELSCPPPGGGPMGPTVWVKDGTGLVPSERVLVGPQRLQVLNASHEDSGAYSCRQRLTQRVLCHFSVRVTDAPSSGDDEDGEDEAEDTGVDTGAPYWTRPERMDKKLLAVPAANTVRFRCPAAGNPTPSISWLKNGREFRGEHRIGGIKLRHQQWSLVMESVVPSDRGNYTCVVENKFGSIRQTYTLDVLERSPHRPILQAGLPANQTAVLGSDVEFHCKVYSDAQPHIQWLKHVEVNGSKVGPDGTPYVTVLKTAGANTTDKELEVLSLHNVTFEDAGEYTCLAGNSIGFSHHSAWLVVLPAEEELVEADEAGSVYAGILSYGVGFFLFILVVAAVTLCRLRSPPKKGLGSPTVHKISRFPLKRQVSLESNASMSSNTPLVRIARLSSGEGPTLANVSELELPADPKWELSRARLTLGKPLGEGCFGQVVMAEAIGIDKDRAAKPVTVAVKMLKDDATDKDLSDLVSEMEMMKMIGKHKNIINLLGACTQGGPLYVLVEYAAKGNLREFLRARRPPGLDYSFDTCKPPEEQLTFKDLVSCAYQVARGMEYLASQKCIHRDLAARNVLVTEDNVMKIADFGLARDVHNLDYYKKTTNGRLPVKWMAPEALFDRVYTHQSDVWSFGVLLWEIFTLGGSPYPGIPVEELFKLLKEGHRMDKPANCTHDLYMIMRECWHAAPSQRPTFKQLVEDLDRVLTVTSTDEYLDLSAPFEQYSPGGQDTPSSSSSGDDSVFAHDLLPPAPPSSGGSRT

FGF-18-saporin conjugate showed an LD50 (sensitivity of cell line to the FGF-18-saporin conjugate) of under 1 nM.
